# Laboratory results taken from the DeepSol protein solubility set.
# Test: soluble on expression in E. coli; label from the status in PepcDB or PDB records
row,Sequence,soluble on expression in E. coli
1,MLKYMLDTNIAIYVIKRRPIEVLVTFNRYADMMCVSAVTEAELLHGAEKSRQREHNLRQVADFLSRLEVLSYTSKAAGHYGDIRADLERKEKPIGVNDLHIAAHARSEGFILVSNNLREFERVDGLRLENWIT,not soluble
2,MLLEAIFHEAKGSYAYPISETQLRVRLRAKKGDVVRCEVLYADRYASPEEELAHALAGKAGSDERFDYFEALLECSTKRVKYVFLLTGPQGEAVYFGETGFSAERSKAGVFQYAYIHRSEVFTTPEWAKEAVIYQIFPERFANGDPSNDPPGTEQWAKDARPRHDSFYGGDLKGVIDRLPYLEELGVTALYFTPIFASPSHHKYDTADYLAIDPQFGDLPTFRRLVDEAHRRGIKIILDAVFNHAGDQFFAFRDVLQKGEQSRYKDWFFIEDFPVSKTSRTNYETFAVQVPAMPKLRTENPEVKEYLFDVARFWMEQGIDGWRLDVANEVDHAFWREFRRLVKSLNPDALIVGAIWHDASGWLMGDQFDSVMNYLFRESVIRFFATGEIHAERFDAELTRARMLYPEQAAQGLWNLLDSHDTERFLTSCGGNEAKFRLAVLFQMTYLGTPLIYYGDEIGMAGATDPDCRRPMIWEEKEQNRGLFEFYKELIRLRHRLASLTRGNVRSWHADKQANLYAFVRTVQDQHVGVVLNNRGEKQTVLLQVPESGGKTWLDCLTGEEVHGKQGQLKLTLRPYQGMILWNGR,soluble
3,MLLLTPGPTPIPERVQKALLRPMRGHLDPEVLRVNRAIQERLAALFDPGEGALVAALAGSGSLGMEAGLANLDRGPVLVLVNGAFSQRVAEMAALHGLDPEVLDFPPGEPVDPEAVARALKRRRYRMVALVHGETSTGVLNPAEAIGALAKEAGALFFLDAVTTLGMLPFSMRAMGVDYAFTGSQKCLSAPPGLAPIAASLEARKAFTGKRGWYLDLARVAEHWERGGYHHTTPVLLHYALLEALDLVLEEGVAARERRAREVYAWVLEELKARGFRPYPKASPLPTVLVVRPPEGVDADRLVRALYAEGVAVAGGIGPTRGQVLRLGLMGEGARREAYQAFLKALDRALALA,soluble
4,MLLSTKSKKLIRTQYFTTPGILMRGRSHPVGDFKVQNKNPHFNDISVGKRIRYRRKMLGLSQKQLGHSLGVTFQQIQKYEKGINRVGAGRLQEIATLLDVSISFFYADISTKEHVSYPRNKGISNKEEDFLLKSFRELKPKKQKAILCLLSD,not soluble
5,MLNTTFANAKFANPFMNASGVHCMTIEDLEELKASQAGAYITKSSTLEKREGNPLPRYVDLELGSINSMGLPNLGFDYYLDYVLKNQKENAQEGPIFFSIAGMSAAENIAMLKKIQESDFSGITELNLSCPNVPGKPQLAYDFEATEKLLKEVFTFFTKPLGVKLPPYFDLVHFDIMAEILNQFPLTYVNSVNSIGNGLFIDPEAESVVIKPKDGFGGIGGAYIKPTALANVRAFYTRLKPEIQIIGTGGIETGQDAFEHLLCGATMLQIGTALHKEGPAIFDRIIKELEEIMNQKGYQSIADFHGKLKSL,soluble
6,MLPDSSVRLNKYISESGICSRREADRYIEQGNVFLNGKRATIGDQVKPGDIVKVNGQLIEPREAEDLVLIALNKPVGIVSTTEDGERDNIVDFVNHSKRVFPIGRLDKDSQGLIFLTNHGDLVNKILRAGNDHEKEYLVTVDKPITDEFIRGMGAGVPILGTVTKKCKVKKEAPFVFRITLVQGLNRQIRRMCEHFGYEVKKLERTRIMNVSLSGIPLGEWRDLTDDELIDLFKLIENSSSEAKPKAKAKPKTAGIKRPVVKMEKTAEKGGRPASNGKRFTSPGRKKKGR,not soluble
7,MLPLPLIANGKGFIRALENDGALAVYAPLEGGYEGRYQRRLRANGYASISLSARGLGDVEAYLMQVHGVRPAHLGKKNIAQEGAVGPIYFAQPIAGYQLENLPAQSKGLVLWILEGYILSQTEIQDLISLTKRVPKLKVVLEMGGDRVFRWQPLLDCLQAALEHHHHHH,soluble
8,MLPLSLLKTAQNHPMLVELKNGETYNGHLVSCDNWMNINLREVICTSRDGDKFWRMPECYIRGSTIKYLRIPDEIIDMVKEEVVAKGRGRGGLQQQKQQKGRGMGGAGRGVFGGRGRGGIPGTGRGQPEKKPGRQAGKQ,soluble
9,MLPYMAYRYVKNKREKNQREMDSDLDSMVRSIVPDKTVICVPNVAAKLGEDSKEYIPGTLSIVEKSSGVFIEWKPSEDAETSWVMTSDDGNTEMVHARSPEEKQKCGARVAFSMDVNDLSSFRNDEPKRGSGGFPSIRLICRDGSSQVPLFFKNTTTAEFLDRLQGYITLRRSHRDSHLVIVVDQKSEALAKSVSMLDENGDILSRFMQNPYMTAMTGFSKITSFVQDQVIPSVLNDTDAVTQEEKIRLMRELRLAEEQMRVHSDAAGEFEVVTQLELPPRPEIYRELPVSKDLWNSFKLSNGSYDPMKLHHLKMNVFRGGLNAELRKEAWKCLLGYRQWHESDTDFQTRRAELAKQYENMKKQWMSVTEDQEKRFTKFVKRKSLVGEEIEND,not soluble
10,MLQLTLESSFSNTLTVSELNSYVKSTLEEDFLLKRACIKGEISNCTLHKSGHVYFTLKDENSAIDCVMFKPYTKKLDFSPAEGMSVIIKGKVSLYTKTGKYQFYCNEMEKEGLGDLFIKFKKLKEKLESEGLFNEEYKQKIPKYPKNIGIITSPTGAAIRDIIKVTRNRNSSVNLIIYPAVVQGESAAKTVISGISELNKLEKIDLIIIARGGGSMEDLWCFNNESLARAIFESKKPVITGIGHETDFTISDFVSDLRAATPSNAAEIAIYNEYELKSMINNLERMLKNRMKTEISNRSYELDILYSKIEKNSPKSKIEKQKVHVDKIRAQMNHEIKNKISYEVKRFEKSYSLLNAYNPLNVLNKGYSIIQDENEKIISSKSSLNLENDVKITLKDGTVDAHITLKE,not soluble
11,MLQSTLLRKSIFYSLAHRRHVASVPLKDVFCDPENPKILQFGDISMAHHRIQNGIVRTDCRKSRCLSKLFDMNIYLKMEVNQDTGSFKERGARYALQNLPEEKKKAGVYAASAGNHALALSLHGKQLGVEVNVVMPKIAPLMKINRCQDLGANILVQGEDIAESREIALRMAHDSNGTYINGYDHYDILAGAGTTGIEILEQIQMPDAILVPVGGGGLVAGVATAVKALSPTTEVIGVVSETCQAIVKSLQAGHPVYTPTRPTLADGLAVPNAGVNAFASMIGKVDRVISVPENDIAVAILRLIENEKVVCEGAGAIGIGAILSGKLNHLKGKTVVSILSGGNIDSTSLGRCIERGLAYDHRVIRLSVIIPDKPGGLSKLTGLVGELSGNVRDLYLERAFMRNDMSSQRVKMVIEVRGEEHEMQLKQKFQEVYDPSNCQFKNNRLPRL,not soluble
12,MLQVCCYTSEGYKYAVGIDLVRFFDTVNHSFLLRILSRTINDGRVISLIHKYLTSGVMIGKHYEPSIEGTPQGAPLSPLLSNILLNELDKELERRGHCFVRYADDSMILCKSKRSAERVCSSITDFSFYFTKGKCRLCVHKTTKEKFKRKVKSLTRRSNSMGYAQRKEILWQTFRGWIGYFKYADMRSLLIPLDQWYRRHLRMCIWKCWKRVKTRFSNLQKCGIPKGKALEHHHHHH,soluble
13,MLRKLWKRPHSTWNKITAVTNVSSEKTITDGQLSEKARKDVDHDVDRTIYDIPLEYCHLRIPKSRTSRSCPDPWRRYGAHVKLCEVGGWMPENRNKNSKVIVVKKGSAPPAAPRCKPLMTVEDYLGVLRK,not soluble
14,MLRMDLQTYQKIYSSLHNFGDVFRLSEEYSRPAGMLATILNQKIVKMTRFKHRRVYSREKELFMKWKQGRSILELAEYTYFPPTLMASLILKNCDFSRKSINWLFKHLDCIENRRLRKEVRKALNADYFFSPRAHEMQCRKGEMGEEIVRKWLDDREIAYCTEAEIRAKGDGKTPDFVLSNPIFIEDHMVSWIESKALFGDDFEHKHYAKKQFREYADIFGEGMVVYWYGFLEDLSSEDEGYLIKDYRFFEGYQEQTDELFNYLVYWLEHHHHHH,not soluble
15,MLRRCSVLLNDPPLVSGGPVVGLMRDTGTRTTIRPSIMDAQIAQSALEVKMSSLLAREMQAEKMEAEREPPLKRKWVKAPVSQLSTSLSRRDWFRLMSFNMMTDAWGPGHTTPVEAVRVRVPEFTRNPECDDPNACCDYDPSIDKEFPPFLTPEHRRKHLVELLRCYDPDIACLNEVKRTFFNTELWRYVRFLGYGTLYQSSRGAQVRALRKGDNAAAPSNQGKIAEEEDIGNVLLFHKGRFFPLMMPGRDIGQRFHFAHFVGMRDKVTNMTLYVACVQLTAGATAEAADVRLHEARQVLTILDALGRNDADRSHQSHIVCGDLNNQADDEPCVELLRDRFFSTHDLVGGPRWTAWHYRDDARAAAYDTYYTKNVEQAHRSDKAYQAEEEIHRFRRKDAGGYHGVFSKVRLVRDEIAARAHKKQQQQLTTPKTAPEVATPPPADTVAAAPAPSPASAPAPSDTAVRVDQLALLKESRKAKGITYNTQDFIFYDPSTLALHQVLDVPEDEEVNEAQLFPNHKLPSHHLPLFIDISWIDSFPDVAARTLKE,not soluble
16,MLRVRLTKMQSDELDAIIGELQAQMPEASVTTSSIARYALEKYVSDHIAKRDGTKIFIEINTADATEEEIKNLYDLLSKLFDEAKENYSPMVHYMVGEILEPLMMKMARLMKLKKPEVKAGE,not soluble
17,MLSAESLKQIDIELAKYPADQRRSAIMGALRIAQTEKGWLAPETIAFVADYIGITPAQAYEVATFYNMYDLEPVGKYKLTVCTNLPCALRGGMATGEYLKQKLGIGYGETTPDGKFTLVEGECMGACGDAPVMLVNNHSMCSFMTEEAIEKKLAELE,not soluble
18,MLSAKGPQMRAFTQRVAAFSTQLQIDPIPIVFVGKGTTPRQNSLLGPNDSQYPFQGDVSFAHKPLSIRQQVENSKIERVMDDTEHNLINLLSNTNIEVDRTHLAQLKEEAMEEIQANAADVEIELSAIEAPKLLKKEMKYLFPQMETQKMNNVTVFNLTQKSEFDMKAWSEAMEEEREKLTASFIMSANAICSTLHRFGYWADFIDPSSGRPYMGDYTNHTLFETNDAYKQMGFKIEDLGCCKVLQHACWGSNAFVGTIFTDAPVDGDAVRDILKKVTQEIDE,not soluble
19,MLSEETIRVIKSTVPLLKEHGTEITARMYELLFSKYPKTKELFAGASEEQPKKLANAIIAYATYIDRLEELDNAISTIARSHVRRNVKPEHYPLVKECLLQAIEEVLNPGEEVLKAWEEAYDFLAKTLITLEKKLYSQP,soluble
20,MLSGVGAPVGKQMLAGTEVAAMQINKAGGLLGREVELVIRDDKYNSSESVAVARELAGDGINLLLGGSQTVTALGLAPLAPELNMAVMIVAAAGMPVTHELFNPNIFRATANNYTQYSSLGRVLIEQNPDVRTWVSLAPDGDFGRDSALFFGKAVEKYAPGEKPTVLDTIYTQATATDFRTQINQLMSSDAEGLYIGIAASAQISFFQQARSVGLYDKFKAIGEVGNGDITGKAMGRNTHPNLWSVCHWIYNAEPFASNPVSKQLYEDYVTLKGDEMPSAQVAAGHRAAMAIFEGIRAAGSTETEAVLAAIEDVEFETVGGPVSFRKEDHQLVNTNYYSQMGPSREEPFFAFNKVVSIDAAEMIEPATPGKAFDISELPQLEHHHHHH,not soluble
21,MLSRSAKPVAPNSPLMALLPYSFNRPINVLVMGLDQSETGEQAEKFDTRSDTLLLLRFDPLEGTTSLLSIPRDTQVAIPGYGTTKINAANVFGGPALAADVVSRTLNDVPIDRYLRIDTTAFKELVDLVGGVEVYVPKPMRYTDNTQKLYIDLPAGRQTLNGDQAEQFARFRYDELGDIGRVQRQQMLLRALREKLANPLILTKAPDLVKVLQKYVDTNLSFEELMALVSIGLQQDLANIRMVMLPGRPIMQDDVSYWRLDEGARDRLVSDFFNQISIQPIDRLAFEDLRVAIQDSSGKPEAAQALAESLAKLGIRRVYIIEDWPEPLEKTQIIAQRGDLIQAEGLQQQLNLGEVRASSDGDIGSDLTIRIGQDWQPTPSPKPLEHHHHHH,soluble
